Assay results reported in paper PMC5665922.
Where “and” joins values, the source holds several entries; their conditions need not be identical. Identical values can stand only once.

Tests used:
[1] = biological target: Histidine-tagged INT-interacting MVP domains (His-iMVP), major vault protein domains 3 to 5; assay: SPR; Biacore 3000, His-iMVP amine-coupled to CM5 (410, 1860 or 1240 RU), His-INT or variant injected, 25 °C, 50 mM PBS, 150 mM NaCl, pH 7.4; 1-to-1 Langmuir fit; apparent constants
[2] = biological target: Histidine-tagged INT-interacting MVP domains (His-iMVP), major vault protein domains 3 to 5; assay: SEC; His-iMVP and His-INT mixed at equimolar ratio (70 μM), overnight at 4 °C, Superdex 75 10/300 GL; band densities of peak fractions on SDS-PAGE

Row | Binder | Kd [1] [nM] | T1/2 [1] [min] | koff [1] [s⁻¹] | kon [1] [M⁻¹ s⁻¹] | stoichiometry N [1] | stoichiometry N [2]
1 | Histidine-tagged vault-interacting domain of vault poly(ADP-ribose)-polymerase (His-INT) (domain or fragment) CIQHWQDAVPWTELLSLQTEDGFWKLTPELGLILNLNTNGLHSFLKQKGIQSLGVKGRECLLDLIATMLVLQFIRTRLEKEGIVFKSLMKMDDASISRNIPWAFEAIKQASEWVRRTEGQYPSICPRLELGNDWDSATKQLLGLQPISTVSPLHRVLHYSQG | 262 | 13.9 | 0.0006 | 2280 | 1 | 1 and 2
2 | His-INTΔC15 (His-INT with 15 amino acids deleted at the C terminus) (domain or fragment) CIQHWQDAVPWTELLSLQTEDGFWKLTPELGLILNLNTNGLHSFLKQKGIQSLGVKGRECLLDLIATMLVLQFIRTRLEKEGIVFKSLMKMDDASISRNIPWAFEAIKQASEWVRRTEGQYPSICPRLELGNDWDSATKQLLGLQPI | 1800 | 9.4 | 0.00089 | 485 | 1 | –
